This is an account of results in patent publication US20240132577A1 (US Dept. of Health and Human Services, published 2024).

What all share (experiment): cell-based or functional assay
Test [1] concerns the target T1, SARS-CoV-2 S protein (C-terminally truncated, on pseudotyped virus) (SARS-CoV-2 (Wuhan-Hu-1), UniProt P0DTC2 14-1254).
Test [2] deals with T1, SARS-CoV-2 S protein (C-terminally …). This is another data set of the same source.
In test [3] the target is SARS-CoV-2 S protein R683G (on pseudotyped virus) (SARS-CoV-2, UniProt P0DTC2 14-1254).
Test [4] has as its target SARS-CoV-2 S protein K417N (on pseudotyped virus) (SARS-CoV-2, UniProt P0DTC2 14-1254).
Test [5] deals with SARS-CoV-2 S protein E484K (on pseudotyped virus) (SARS-CoV-2, UniProt P0DTC2 14-1254).
Test [6] addresses SARS-CoV-2 S protein N501Y (on pseudotyped virus) (SARS-CoV-2, UniProt P0DTC2 14-1254).
Test [7] concerns the target SARS-CoV-2 S protein K417N + E484K + N501Y (on pseudotyped virus) (SARS-CoV-2, UniProt P0DTC2 14-1254).
Test [8] deals with SARS-CoV-2 S protein (C-terminally truncated, on pseudotyped virus) (SARS-CoV-2 (Wuhan-Hu-1), UniProt P0DTC2 14-1254). This is another data set of the same source.

“And” between values parts separate entries of the source, which are not always exact repeats. Equal entries are not always repeated. Where two headings read alike, the source gives them in different places.

B1: msNb12-tri-IgG2a (Fc fusion)
chain: QVKLEESGGGSVQAGGSLRLICTAPGLTHNNCGLDWYRRAPGKEREFVSSISADGTTSYADSVKGRFTISKDKVEDTVYLQMNSLKPEDTAIYSCKTAFPYFGNSCVLDYWGQGTSVTVSSGGGGSGGGGSGGGGSQVKLEESGGGSVQAGGSLRLICTAPGLTHNNCGLDWYRRAPGKEREFVSSISADGTTSYADSVKGRFTISKDKVEDTVYLQMNSLKPEDTAIYSCKTAFPYFGNSCVLDYWGQGTSVTVSSGGGGSGGGGSGGGGSQVKLEESGGGSVQAGGSLRLICTAPGLTHNNCGLDWYRRAPGKEREFVSSISADGTTSYADSVKGRFTISKDKVEDTVYLQMNSLKPEDTAIYSCKTAFPYFGNSCVLDYWGQGTSVTVSSEPKIPQPQPKPQPQPQPQPKPQPKPEPECTCPKCPAPELLGGPSVFLFPPKPKDTLMISRTPEVTCVWDVSHEDPEVKFNWYVDGVEVHNAKTKPREEQYNSTYRWSVLTVLHQDWLNGKEYKCKVSNKALPAPIEKTISKAKGQPREPQVYTLPPSREEMTKNQVSLTCLVKGFYPSDIAVEWESNGQPENNYKTTPPVLDSDGSFFLYSKLTVDKSRWQQGNVFSCSVMHEALHNHYTQKSLSLSPGKHHHHHH
As for B1, the “IC50 (pseudovirus neutralization)” value in test [1] is 4.71 ng/ml and 64.8 nM. In addition, the “IC90 (pseudovirus neutralization)” value in test [1] was 74 ng/ml and 1.02 µM. For the same molecule, the “IC50 (variant pseudovirus neutralization)” value in test [2] was 0.091 nM; in test [3], 0.178 nM; in test [4], 0.068 nM; in test [5] it was 0.149 nM; in test [6] it was 0.082 nM; in test [7], 0.09 nM.

B2: Nb21 (VHH)
VHH: QVQLVESGGGLVQAGGSLRLSCAVSGLGAHRVGWFRRAPGKEREFVAAIGANGGNTNYLDSVKGRFTISRDNAKNTIYLQMNSLKPQDTAVYYCAARDIETAEYTYWGQGTQVTVSS
Regarding B2, in test [8], the “IC50 (pseudovirus neutralization)” value was 1900 ng/ml and 141 nM; the “IC90 (pseudovirus neutralization)” value was 3230 ng/ml and 239 nM.

B3: Nb4 (VHH)
VHH: QVQLVESGGGLVQAGGSLRLSCVASGSGFEPNAMGWYRQAPGKQRELVAGITSGGNANYADSVKGRFTISRDNVKNTVYLQMNSLKPEDTAVYYCNAVGPRFNPRGSPTNYWGQGTQVTVSS
Regarding B3, in test [8], the “IC50 (pseudovirus neutralization)” value is 41 nM and 554 ng/ml; the “IC90 (pseudovirus neutralization)” value was 4490 ng/ml and 332 nM.
